Reference: US6033882A, “Chiral synthesis of 2-hydroxy carboxylic acids with a dehydrogenase” (Genzyme Corporation, priority 1994, dated 2000)
Positions count from the first letter of the chain named. Read-outs that look alike come from different tables or passages of the source.

Key:
[1] = target: T1, Lactobacillus delbrueckii ssp. Bulgaricus R-2-hydroxy acid dehydrogenase (LB2HADH), wild type (H206), SEQ ID NO:1 (Lactobacillus delbrueckii, UniProt Q48534); assay: Steady-state kinetics of 2-keto acid reduction, followed by NADH oxidation; type: biochemical
T1 construct: no tag mentioned
T1 sequence (Q48534 1-333): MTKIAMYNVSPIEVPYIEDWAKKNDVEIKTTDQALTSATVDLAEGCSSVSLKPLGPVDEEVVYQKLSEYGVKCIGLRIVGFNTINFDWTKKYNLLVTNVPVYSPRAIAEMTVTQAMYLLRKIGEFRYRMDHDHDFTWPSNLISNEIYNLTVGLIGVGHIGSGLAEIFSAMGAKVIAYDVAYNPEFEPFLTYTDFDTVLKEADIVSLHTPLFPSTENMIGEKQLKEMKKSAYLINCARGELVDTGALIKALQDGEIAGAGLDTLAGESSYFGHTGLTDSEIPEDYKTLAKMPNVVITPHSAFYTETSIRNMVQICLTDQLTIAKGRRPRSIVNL
From the text: Since 1950, a number of workers have investigated the reduction of 2-oxo carboxylic acids catalysed by R-hydroxy acid dehydrogenases. For these studies, enzymes isolated from a variety of bacte rial sources have bee n employed. For a given 2-oxo acid, a given enzyme activity may be examined by UV spectroscopy and quantified with the Michaelis constant, Km, and the catalytic turnover, kcat.
The two compartment model for the binding pocket of the enzyme is illustrated in accompanying FIG. 1.
The substrate specificity of the purified enzyme was established by following the kinetics of reduction of a variety of 2-ketoacids (see Table 2 above).
(The steady-state kinetic constants of LB2HADH and H206Q in Table 6 below were obtained using standard stopped flow measurements.)

[2] = target: T2, Lactobacillus delbrueckii ssp. Bulgaricus R-2-hydroxy acid dehydrogenase (LB2HADH) variant H206Q (Q206 mutant, Histidine 206 replaced by glutamine) (Lactobacillus delbrueckii, UniProt Q48534, H207Q); assay: as above; type: biochemical
T2 construct: no tag mentioned
T2 sequence (Q48534 1-333 H207Q): T1 sequence (Q48534 1-333) with H207Q
Procedure: Glutamine 206 variant of LB2HADH:
A site-directed mutant was prepared from pGIN113 (Bernard, N., et al, Eur. J. Biochem., (1994), 224, 439-446) using a mutagenic oligonucleotide:
and the Promega "altered sites mutagenesis" kit. The enzyme was purified as for the wild type.
The vQ206 /vwt was 45 at 70 mM substrate.
The results are illustrated in accompanying FIG. 2, the Vmax values for H206Q being divided by 10 to obtain a clearer representation of comparative performance. […] (The steady-state kinetic constants of LB2HADH and H206Q in Table 6 below were obtained using standard stopped flow measurements.)

[3] = substrate: NC(=O)C1=CN([C@@H]2O[C@H](COP(=O)(O)OP(=O)(O)OC[C@H]3O[C@@H](n4cnc5c(N)ncnc54)[C@H](O)[C@@H]3O)[C@@H](O)[C@H]2O)C=CC1; assay: purified protein, by the assay type; settings: other: pH 5.5, stopped flow
[4] = substrate: CC(=O)C(=O)O; assay: purified protein, by the assay type; type: biochemical, Lactobacillus delbrueckii ssp. Bulgaricus; settings: other: pH 7.5; [NADH] = 0.2 mM; pH 7.5
[5] = substrate: CC(C)C(=O)C(=O)O; assay: purified protein, by the assay type; type: biochemical, Lactobacillus delbrueckii ssp. Bulgaricus; settings: other: pH 7.5; [NADH] = 0.2 mM; pH 7.5
[6] = substrate: CC(C)CC(=O)C(=O)O; assay: purified protein, by the assay type; type: biochemical, Lactobacillus delbrueckii ssp. Bulgaricus
[7] = substrate: CCC(=O)C(=O)O; assay: purified protein, by the assay type; type: biochemical, Lactobacillus delbrueckii ssp. Bulgaricus; settings: other: pH 7.5; [NADH] = 0.2 mM; pH 7.5
[8] = substrate: CCCC(=O)C(=O)O; assay: purified protein, by the assay type; type: biochemical, Lactobacillus delbrueckii ssp. Bulgaricus; settings: other: pH 7.5; [NADH] = 0.2 mM; pH 7.5
[9] = substrate: CCCCC(=O)C(=O)O; assay: purified protein, by the assay type; type: biochemical, Lactobacillus delbrueckii ssp. Bulgaricus; settings: other: pH 7.5; [NADH] = 0.2 mM; pH 7.5
[10] = substrate: O=C(O)C(=O)CCC1CCCC1; assay: purified protein, by the assay type; type: biochemical, Lactobacillus delbrueckii ssp. Bulgaricus
[11] = substrate: O=C(O)C(=O)CCc1ccccc1; assay: purified protein, by the assay type; type: biochemical, Lactobacillus delbrueckii ssp. Bulgaricus; settings: other: pH 7.5; [NADH] = 0.2 mM; pH 7.5
[12] = other: pH 5.0, stopped flow, pH 5.0
[13] = other: pH 5.5, stopped flow, pH 5.5
[14] = other: pH 6.0, stopped flow, pH 6.0
[15] = other: pH 6.5, stopped flow, pH 6.5
[16] = other: pH 7.5, [NADH] = 0.2 mM, pH 7.5

O=C(O)C(=O)CCc1ccccc1 [benzylpyruvate, 2-oxo-4-phenyl butanoate]
Vm (VM (app): turnover at optimal substrate concentration) ([1]; pH 7.5, [NADH] = 0.2 mM): 51 s⁻¹

O=C(O)C(=O)CCC1CCCC1 [cyclopentylmethyl, 4-cyclopentyl-2-keto-butanoate]
Ki ([1]; substrate inhibition, wild type, read-out: Ki (substrate)): 2 mM
Ki ([2]; read-out: Ki (substrate), substrate inhibition, Q206 mutant): > 100 mM

CC(C)CC(=O)C(=O)O [ketoisocaproate, 4-methyl-2-oxo-pentanoic acid]
Ki ([1]; pH 5.5, stopped flow, read-out: Ki KIC): 0.24 mM
Vm/KM ([1]; pH 6): 5e+06 M⁻¹ s⁻¹
Ki ([1]; pH 6.0, stopped flow, read-out: Ki KIC): 0.31 mM
Vm (VM (app): turnover at optimal substrate concentration) ([1]; pH 7.5, [NADH] = 0.2 mM): 20 s⁻¹
Ki ([2]; read-out: Ki KIC, pH 5.0, stopped flow): 3.5 mM
Ki ([2]; read-out: Ki KIC, pH 5.5, stopped flow): 8.1 mM
Ki ([2]; read-out: Ki KIC, pH 6.0, stopped flow): 5.8 mM
Ki ([2]; read-out: Ki KIC, pH 6.5, stopped flow): 7.6 mM

O=C(O)C(=O)Cc1ccccc1 [phenylpyruvate]
Km ([1]; pH 7.5, [NADH] = 0.2 mM, read-out: Km (KM (app): substrate concentration for 0.5 Vmax)): 31 µM

CC(=O)C(=O)O [pyruvate]
Vm (VM (app): turnover at optimal substrate concentration) ([1]; pH 7.5, [NADH] = 0.2 mM): 48 s⁻¹

B1: Lactobacillus delbrueckii ssp. Bulgaricus R-2-hydroxy acid dehydrogenase (LB2HADH), wild type (H206), SEQ ID NO:1 (Lactobacillus delbrueckii) (protein)
chain: T1 sequence (Q48534 1-333)
notes: no tag mentioned
Km [3]: 15 µM
Km [4]: 20000 µM
Km [5]: 20000 µM
Km [6, 12]: 25 µM
kcat [6, 12]: 170 s⁻¹
kcat/Km [6, 12]: 7e+06 M⁻¹ s⁻¹
Km [6, 13]: 30 µM
kcat [6, 13]: 240 s⁻¹
kcat/Km [6, 13]: 8e+06 M⁻¹ s⁻¹
Km [6, 14]: 50 µM
kcat [6, 14]: 245 s⁻¹
kcat/Km [6, 14]: 5e+06 M⁻¹ s⁻¹
Km [6, 15]: 15 µM
kcat [6, 15]: 75 s⁻¹
kcat/Km [6, 15]: 5e+06 M⁻¹ s⁻¹
Km [6, 16]: 22 µM
kcat/Km [6, 16]: 910000 M⁻¹ s⁻¹
Km [7]: 1700 µM
kcat/Km [7]: 28000 M⁻¹ s⁻¹
Km [8]: 57 µM
kcat/Km [8]: 330000 M⁻¹ s⁻¹
Km [9]: 20 µM
kcat/Km [9]: 650000 M⁻¹ s⁻¹
Km ([10]; other: 0.2 mM NADH, wild type): 8 µM
kcat ([10]; other: 0.2 mM NADH, wild type): 25 s⁻¹
Km [10, 16]: 10 µM
kcat/Km [10, 16]: 2.8e+06 M⁻¹ s⁻¹
Km [11]: 36 µM
kcat/Km [11]: 1.4e+06 M⁻¹ s⁻¹
